From US12077763B2, “RNA-based control of powdery mildew” (Greenlight Biosciences, Inc., priority 2021, dated 2024)

Test system: E. necator
Assay: Leaf disc assay, dry inoculum (settling tower), decrease in disease severity / hyphal growth (Example 2)
Conditions: decrease in disease severity (hyphal growth) relative to untreated control, value ± SE; for % decrease =/− SE TP1: time point 1 (untreated control hyphal growth ≥50%); for % decrease =/− SE TP2: time point 2

Row | Molecule | % decrease =/− SE TP1 [%] | % decrease =/− SE TP2 [%]
1 | GS3934 (nucleic acid) sense: UCUUCUUCAGUGGUAUGUGCAAGAGAUUGACGUCUAGAUGAACGUGUUGAUGGUGCAGUUACUACAGCAGUAGCUUCAACCGAUUUUCGACUCACUUUUCGCUUGUUUGAAACAGACGAAACUAAAGAAUUUGUGGAACUAGAUUUAGGUUUACGAGUAGUGGACCGUCCCUUACUUGUAUAGACUCUCUUUUUAAGUGUAGAAUCAUUCAAUGGCUGUAAAAAUGAAACUAAAUCUCCACAAAUAGUAGUAGGUGCAUCUGCUGAUAAUGCUUCAGGUAAAUCUAAUCUAGAUCCAAUUUCUGAUGUACUAAGUGAUAUAUUUGAAGAGGUAAUAUUACUUUGUAUUUCAGGUGUCUUUGAGGUCAUCUUUGAUGAAAUUACCAUUAGUUUUU antisense: AAAAACUAAUGGUAAUUUCAUCAAAGAUGACCUCAAAGACACCUGAAAUACAAAGUAAUAUUACCUCUUCAAAUAUAUCACUUAGUACAUCAGAAAUUGGAUCUAGAUUAGAUUUACCUGAAGCAUUAUCAGCAGAUGCACCUACUACUAUUUGUGGAGAUUUAGUUUCAUUUUUACAGCCAUUGAAUGAUUCUACACUUAAAAAGAGAGUCUAUACAAGUAAGGGACGGUCCACUACUCGUAAACCUAAAUCUAGUUCCACAAAUUCUUUAGUUUCGUCUGUUUCAAACAAGCGAAAAGUGAGUCGAAAAUCGGUUGAAGCUACUGCUGUAGUAACUGCACCAUCAACACGUUCAUCUAGACGUCAAUCUCUUGCACAUACCACUGAAGAAGA | 31 ± 5 | 17 ± 6
2 | GS3935 (nucleic acid) sense: CACCGCAGGAAACAACACGAGUAAAAUCAUUUUCUUCAACAACAUCUUCUGCAGCAAAAAAAUUUUCUCGUGCACUCUUAUGGCGGUCAAUUUGUAGAGAUUGCUCAUCGAAGACAAUCUGACCAUCAACGAUGCGAAUUUUAGGACCAACCGGAGGAGCAGACGGCGGUGCGAUUUGGCUAUUUAAACUUGGCUCAGUCUUUCUACUUUCAUUUAGGGUAUAAUUGUCACCACUUUUUCCAUCUAUAUAAUCUUCAAGUUCAGGGUUAUCUCGCUUCAUCCUAGCUUUGAUAGCAUUUUGUUUCAUUCGUGCAAGUCGUCCCAUUAUCUCAUCGUGGUUUCUAGACUUUUUACCAAUACGAAGAUCAUGACAUAAGUCUUGCAUGGUAAUAACAGAA antisense: UUCUGUUAUUACCAUGCAAGACUUAUGUCAUGAUCUUCGUAUUGGUAAAAAGUCUAGAAACCACGAUGAGAUAAUGGGACGACUUGCACGAAUGAAACAAAAUGCUAUCAAAGCUAGGAUGAAGCGAGAUAACCCUGAACUUGAAGAUUAUAUAGAUGGAAAAAGUGGUGACAAUUAUACCCUAAAUGAAAGUAGAAAGACUGAGCCAAGUUUAAAUAGCCAAAUCGCACCGCCGUCUGCUCCUCCGGUUGGUCCUAAAAUUCGCAUCGUUGAUGGUCAGAUUGUCUUCGAUGAGCAAUCUCUACAAAUUGACCGCCAUAAGAGUGCACGAGAAAAUUUUUUUGCUGCAGAAGAUGUUGUUGAAGAAAAUGAUUUUACUCGUGUUGUUUCCUGCGGUG | 1 ± 5 | –
3 | GS3937 (nucleic acid) sense: CAUCUCAACGACUUUGUAGAAUAAAUCAUAGUGAGAUACAGGACUGUGUAGAAAUGCCUCACCACAACAUAAAGAUAAGGCAAUUAAAUUAACUAGAUUGUCAAUCAAAAUAUCAAUAUUUUUUAAGCCCCUCAAGUCUGAUGUGUAUGUGGUGAGAAACCGAACAAGAGAAAGCAGUGAUCUAUAUAGUUCAGACCAGUGAUAUUUCAAUCGUGUCCGUGACCGAGAUAGGUAUGAUAAUAUACUAUAAAUGAUACCAAUGCAAAGAAUAUAUAAAUCAACAUCCAGUCGUCGUCUUAGAUUGUGAUUGAUUCCAUCAAGCAUCGCAUCAAGAAGAAUAGCAGCAAUCGAUCUAUCUCCAUGAACAUAAGGAAGGUACGGAGAUUUUUGUCGACAUA antisense: UAUGUCGACAAAAAUCUCCGUACCUUCCUUAUGUUCAUGGAGAUAGAUCGAUUGCUGCUAUUCUUCUUGAUGCGAUGCUUGAUGGAAUCAAUCACAAUCUAAGACGACGACUGGAUGUUGAUUUAUAUAUUCUUUGCAUUGGUAUCAUUUAUAGUAUAUUAUCAUACCUAUCUCGGUCACGGACACGAUUGAAAUAUCACUGGUCUGAACUAUAUAGAUCACUGCUUUCUCUUGUUCGGUUUCUCACCACAUACACAUCAGACUUGAGGGGCUUAAAAAAUAUUGAUAUUUUGAUUGACAAUCUAGUUAAUUUAAUUGCCUUAUCUUUAUGUUGUGGUGAGGCAUUUCUACACAGUCCUGUAUCUCACUAUGAUUUAUUCUACAAAGUCGUUGAGAUG | 12 ± 5 | –
4 | GS3938 (nucleic acid) sense: AUCGGCAAAAGUAAUGCUUCAAAAGCUGAUACAAAGACUAUAUGGAGAGGAGCUUUAAAUAUAUUGGAAGACUUAAAAAACGCAGAAAAGGAUUGGAGAUUUGGGAAAACUGAAAUUGUAGGGUUUGACAUUGAGAGAGAGAACCAAAUAGAUUGCCCUCAAAGUGAUAUGGAAAUCUUGCAGCAACAGUCAAGCAACACUGCAAGCUAUGCCAAUAAUUUCACCUCCGACCUUACACCUGAAGGCCGCCCAACAGGAAAAGUUACGAAAGCUCGAUUUCAGUCUGCAGAAAUAGGAAAAUGUACUCAAGUUGGAUGGGGAGUCGUACACCUAUACCGUGAUGAUAACGAUGCUGUUAAUUUUGAUACCCGAACUACUACAUACGAUGGAAA antisense: UUUCCAUCGUAUGUAGUAGUUCGGGUAUCAAAAUUAACAGCAUCGUUAUCAUCACGGUAUAGGUGUACGACUCCCCAUCCAACUUGAGUACAUUUUCCUAUUUCUGCAGACUGAAAUCGAGCUUUCGUAACUUUUCCUGUUGGGCGGCCUUCAGGUGUAAGGUCGGAGGUGAAAUUAUUGGCAUAGCUUGCAGUGUUGCUUGACUGUUGCUGCAAGAUUUCCAUAUCACUUUGAGGGCAAUCUAUUUGGUUCUCUCUCUCAAUGUCAAACCCUACAAUUUCAGUUUUCCCAAAUCUCCAAUCCUUUUCUGCGUUUUUUAAGUCUUCCAAUAUAUUUAAAGCUCCUCUCCAUAUAGUCUUUGUAUCAGCUUUUGAAGCAUUACUUUUGCCGAU | 3 ± 5 | –
5 | GS1817: dsRNA trigger SEQ ID NO 139; gene target Cell division control protein 48 (nucleic acid) DNA: GCTTCGCGAAAGTAAGGTGCAAGGAAAACATCAAAGAGGGAACCAGTAAGGCCTTCAACAGTATCTGCGATAGGAAGAACTGCGATACGTTTGGCGTATTTTATATCAGGACATGGATGTACTGTAACAATATCACCATGTTTAACCCTAAGGTTGTGTCGGACAACACGATTCATACGAGCACTCCCGTCATCTAAATCATCATCTGCGAGTACAATTAAAACAGTATCCTTTCGCTTCTTCCCCTTAACTAGGACAGTATCTCCACGAAAAAGCTGCAAAGTTTCCATGGTATTATTTGACAGTGCAATAACAGAGTTATCATCGTTGATGGCATCTGTTACAATTAAGGAATTTGGCTTTTTCTTCTTTTTTAAAATAGCAGTCGCAGTAGCATCAATCGTCTTTTGTTCAGCGCCAGAGGCATCCTCAAGTTTAACTGTTTTTTTACGAGTAGCATTGTCTTCAGACATAGTTGTGTAATAAAAGTTAAGAGGGCGTAATTTCCTAGAAAGAATATATCTACTATTAATTTATTGAGATCTTGGAATGAAGGTTTATCCGATAAAATCTGTAAATGATGGAGCTAATCTGAAG | 52 ± 2 | 49 ± 6
6 | GS3939 (nucleic acid) sense: AAGAUUGAAAAUGGAACGCCUAGAACAGCACCUUUAAUUACAACACGAAGGACUCCGAAAAUGCUACGAUCUACUGUGUCAAAUUCCUCGCUUUCCUCACAACCAUCAAUGUCACCGCAUCAAUUUAUUGCUCUUGCCCGGGAAGCAAUGAAAAAUGCUUUGGAAGAGAACAAAUCAAAGGCAGCUGAGGCCAAAAGUGUUAGUAAUGAACUUAAGCCAGGGGUUACGAUCGAUUUUAGCAACAAACAAAUCCAACGAUUUCCUGAUGAAGUAAUUGAUAUAAUAAAGAAUGAGCUUGAAAGACUUGCGCUGUCACAUAAUCAAAUAUCUGUGUUUCCCUCAAGGUUUUCCGAAUGCAAAUCACUCCGAUACCUCAAUGUUAGAGAUAAUGUUAU antisense: AUAACAUUAUCUCUAACAUUGAGGUAUCGGAGUGAUUUGCAUUCGGAAAACCUUGAGGGAAACACAGAUAUUUGAUUAUGUGACAGCGCAAGUCUUUCAAGCUCAUUCUUUAUUAUAUCAAUUACUUCAUCAGGAAAUCGUUGGAUUUGUUUGUUGCUAAAAUCGAUCGUAACCCCUGGCUUAAGUUCAUUACUAACACUUUUGGCCUCAGCUGCCUUUGAUUUGUUCUCUUCCAAAGCAUUUUUCAUUGCUUCCCGGGCAAGAGCAAUAAAUUGAUGCGGUGACAUUGAUGGUUGUGAGGAAAGCGAGGAAUUUGACACAGUAGAUCGUAGCAUUUUCGGAGUCCUUCGUGUUGUAAUUAAAGGUGCUGUUCUAGGCGUUCCAUUUUCAAUCUU | 4 ± 5 | –
7 | GS1819: dsRNA trigger SEQ ID NO 209; gene target Putative ATP-dependent RNA helicase PB1A10.06c (nucleic acid) DNA: CTGGTGCCCTTAACTTGATGGTAAGATTATTCGGCAGAGTTTTTACCATTTGAATATTTGGTATTGATTTATATCCTTGAGCCTCATTTATTTGCTGGATAGCCCAAGCCTTAAACGCAGATCTTTCTTTTCTAGGCGTATTCTCAATTTCATCGCAATCATCAGAACTTTCATTCTCATCACGGCTACTTTCTTTACTGCTATCTGACTCGTAATCAGATAAATTTGGTCCAATTTTATCTCCAACGTCTTCTGAGGAATTTGTCATGTTTCCTATGGTATCACGCTGGATTGACATACTTGAATCTGAGTTTATACCTTCCCATTCTGATTCATCATCGGTGACAGGCTTGCGAATATCAAGAGAAAATTTAGATACAATGCCGCCTCGTCGTTTTCTTTTCCCCAGAATAGGAATTCCCTCCTTACTTATTTCGAGTGGCTTTTTTTAATCCAGCTCCCACAGTTATATCTGTTTGCTTCTGAGTAGTAAGTACTGAAGCTTTAGAGGTCTCATCGATATTATCGTCACATGGAGATATTCTCAGATCATCATTGGTTACAGTACTCTCATCGGAATTGAATTGATTTTCGTT | 12 ± 6 | 8 ± 9
